B1: Fatty acid-binding protein, intestinal, P02693 (parent)
chain: MAFDGTWKVDRNENYEKFMEKMGINVVKRKLGAHDNLKLTITQEGNKFTVKESSNFRNIDVVFELGVDFAYSLADGTELTGTWTMEGNKLVGKFKRVDNGKELIAVREISGNELIQTYTYEGVEAKRIFKKE

Variants of: B1
Settings: Rattus norvegicus; pH 7.3; 20 °C; GdnHCl; Fluorescence; potassium phosphate 20 mM; structure 1IFB; whole UniProt chain shown

MAFDGTWKVDRNENYEKFMEKMGINVVKRKLGAHDNLKLTITQEPNKFTVKESSNFRNIDVVFELGVDFAYSLADGTELTGTWTMEGNKLVGKFKRVDNGKELIAVREISGNELIQTYTYEGVEAKRIFKKE [G45P]
denaturant midpoint (higher = more stable): 0.8 M | unfolding free energy: 3.1 kcal/mol

MAFDGTWKVDRNENYEKFMEKMGINVVKRKLGAHDNLKLTITQEGNKFTVKESSNFRNIDVVFELPVDFAYSLADGTELTGTWTMEGNKLVGKFKRVDNGKELIAVREISGNELIQTYTYEGVEAKRIFKKE [G66P]
denaturant midpoint (higher = more stable): 0.9 M | unfolding free energy: 2.5 kcal/mol

MAFDGTWKVDRNENYEKFMEKMGINVVKRKLGAHDNLKLTITQEGNKFTVKESSNFRNIDVVFELGVDFAYSLADGTELTGTWTMEGNKLVGKFKRVDNPKELIAVREISGNELIQTYTYEGVEAKRIFKKE [G100P]
denaturant midpoint (higher = more stable): 0.7 M | unfolding free energy: 3.5 kcal/mol

MAFDGTWKVDRNENYEKFMEKMGINVVKRKLGAHDNLKLTITQEGNKFTVKESSNFRNIDVVFELGVDFAYSLADGTELTGTWTMEGNKLVGKFKRVDNGKELIAVREISPNELIQTYTYEGVEAKRIFKKE [G111P]
denaturant midpoint (higher = more stable): 1 M | unfolding free energy: 5 kcal/mol

MAFDGTWKVDRNENYEKFMEKMGINVVKRKLGAHDNLKLTITQEGNKFTVKESSNFRNIDVVFELGVDFAYSLADGTELTGTWTMEGNKLVGKFKRVDNGKELIAVREISGNELIQTYTYEPVEAKRIFKKE [G122P]
denaturant midpoint (higher = more stable): 0.6 M | unfolding free energy: 1.2 kcal/mol
